Laboratory results reported in paper PMC10575581 (Science Advances, 2023).

Target: the molecule itself
Test: cryo-EM structure; Der^Δ-p97^Δ complex from Sf9 with ATP·BeFx added through the whole purification; closed class 3.65 Å and open (state U) class 4.51 Å

B1: human Derlin-1 Δ215–239, C-terminal twin strep tag (Sf9) (natural protein, UniProt Q9BUN8-1 1-251, looked up)
chain: MSDIGDWFRSIPAITRYWFAATVAVPLVGKLGLISPAYLFLWPEAFLYRFQIWRPITATFYFPVGPGTGFLYLVNLYFLYQYSTRLETGAFDGRPADYLFMLLFNWICIVITGLAMDMQLLMIPLIMSVLYVWAQLNRDMIVSFWFGTRFKACYLPWVILGFNYIIGGSVINELIGNLVGHLYFFLMFRYPMDLGGRNFLSTPQFLYRWLPSRRHNWGQGFRLGDQ
notes: Derlin-1, human, cDNA NCBI NM_024295.6, whole protein with residues 215 to 239 (loop between TM6 and the SHP box) deleted; a PreScission Protease cleavage site stands before the C-terminal twin strep tag; Cleavage of the tag is not described; also called Der^Δ; truncated Derlin-1; source: Sf9, baculovirus (pFastBac-Dual), coexpressed with p97 Δ1–20, co-purified (Strep-Tactin, SEC in GDN); not …
- stoichiometry N: 4
